Consider 7 molecules from patent US10584341, “Antagonistic PDL1 aptamers and their applications in cancer therapy” (Academia Sinica).

Read-outs that look alike come from different tables or passages of the source.

Series [1] deals with T1, PDL1 (CD274, B7-H1) (Homo sapiens, UniProt Q9NZQ7 Q9NZQ7:19-238). Kind of series: filter; passed cut-off of 5 for PDL1/BSA signal, qPCR. How it is done: Evaluation of the Relative Binding Ability of Candidate PDL1 Aptamers Using Nitrocellulose Filter Binding Assay The sequences of candidate PDL1 targeting aptamers were ranked by output reads from next-generation sequencing and sequences with output reads over 100 were analyzed. Among them, top 50 candidate aptamer sequences accounted for over 85% output reads. To evaluate their binding abilities toward PDL1, these top 50 candidate aptamers were synthesized and analyzed by nitrocellulose filter binding assay. The binding abilities toward BSA were used as negative control. In brief, candidate aptamer was incubated with PDL1 or BSA, respectively. Aptamer-protein complexes were collected by nitrocellulose filter and eluted by heating. The number of eluted aptamer was quantified by quantitative PCR and normalized by dividing the signal from PDL1 group to signal from BSA group. In order to find out the PDL1 aptamer with higher specificity, the cut-off value was set at 5.
T1 sequence (Q9NZQ7 19-238, one chain of several): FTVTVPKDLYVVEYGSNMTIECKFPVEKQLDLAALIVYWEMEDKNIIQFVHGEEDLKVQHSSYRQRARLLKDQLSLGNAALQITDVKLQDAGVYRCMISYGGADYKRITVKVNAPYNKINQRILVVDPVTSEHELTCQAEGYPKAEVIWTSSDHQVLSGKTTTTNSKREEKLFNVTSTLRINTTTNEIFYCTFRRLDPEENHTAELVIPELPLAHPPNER

Series [2] addresses T1, PDL1 (CD274, B7-H1). Nature of the series: competition; ED50 for blocking PD-1:PDL1, ELISA. How it is done:
Identification of Antagonistic PDL1 Aptamers Using an ELISA-Based Competition Assay To investigate the efficacy of candidate PDL1 aptamers as antagonistic agents, ELISA-based competition assay was performed. Human PDL1 recombinant protein (2 µg/ml) was coated onto wells of 96-well ELISA plates and blocked by BSA (10 mg/ml). Human PD-1 protein (0.6 µg/ml) and aptamer (500 nmole/l) were added into wells simultaneously. After washing away unbound human PD-1 protein, PD-1 protein which remained in wells was detected by HRP-labeled anti-human IgG antibody. TMB was used as HRP substrate for color development and absorbance at 652 nm was detected by ELISA plate reader. Remained human PD-1 protein amount was quantified using standard curve which built by serial diluted human PD-1 protein. Wells without PDL1 coating were used as negative control.
To further investigate 50% effective dose of AP14 and AP32 as PDL1 blocking agents, serial diluted AP14 and AP32 ranged from 12.5 nmole/l to 500 nmole/l were used in previously mentioned ELISA-based competition assay.
(ELISA stands for enzyme-linked immunosorbent assay.)

Series [3] deals with PDL1 (CD274) on LL/2 cells (Mus musculus, UniProt Q9EP73 Q9EP73:19-290). Kind of series: flow; apparent Kd on LL/2 cells. The conditions noted are these: tags: endogenous, LL/2 lung carcinoma cells; label: fluorescent dye (not specified).
Sequence of PDL1 (CD274) on LL/2 cells (Q9EP73 19-290, one chain of several): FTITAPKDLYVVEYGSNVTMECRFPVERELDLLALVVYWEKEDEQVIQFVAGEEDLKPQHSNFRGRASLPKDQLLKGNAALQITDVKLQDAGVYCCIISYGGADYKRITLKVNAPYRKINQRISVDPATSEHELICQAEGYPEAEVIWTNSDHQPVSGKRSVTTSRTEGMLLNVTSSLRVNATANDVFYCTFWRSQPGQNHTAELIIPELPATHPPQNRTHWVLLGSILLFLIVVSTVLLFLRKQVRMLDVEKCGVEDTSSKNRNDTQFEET
Series [4] addresses PDL1 (CD274) on CT26 cells (Mus musculus, UniProt Q9EP73 Q9EP73:19-290). Nature of the series: flow; apparent Kd on CT26 cells. The conditions noted are these: tags: endogenous, CT26 colorectal cancer cells; label: fluorescent dye (not specified).
Where [5] appears, read: Mfold-predicted long terminal stem and two short stem loops.

Sequence of PDL1 (CD274) on CT26 cells (Q9EP73 19-290, one chain of several): as above

B1: AP36 (ssDNA)
DNA: TCCCTACGGCGCTAACCATGTTTTCGAAAGACAATCCGCTGCCCTGGCCACCGTGCTACAAC
As to B1, the binding signal with PDL1 (CD274, B7-H1) [1] is > 5 fold over BSA.

B2: AP14 (ssDNA)
DNA: TCCCTACGGCGCTAACCACTCAATAATTCCACTGCTACATACGTTTGCCACCGTGCTACAAC
For the molecule B2, the EC50 – broadly, the concentration giving half of the maximal effect – in the series with PDL1 (CD274, B7-H1) [2] is 41 nM. Besides, the binding signal with PDL1 (CD274, B7-H1) [1] is > 5 fold over BSA. Take ACGGGCCACATCAACTCATTGATAGACAATGCGTCCACTGCCCGT (ssDNA) [aptPDL1 fluorescently labeled]: the Kd was ~155 nM in series [3] and ~250 nM in series [4].

B3: AP48 (ssDNA)
DNA: TCCCTACGGCGCTAACCATGTTCCTTTCGTTCTGCCTTTTCCTTCCGCCACCGTGCTACAAC
For B3, the binding signal in the series with PDL1 (CD274, B7-H1) [1] is > 5 fold over BSA.

B4: AP32 (62-nt) (ssDNA)
DNA: TCCCTACGGCGCTAACACATCAACTTGATAGACAACTGCGTCCACTGCCACCGTGCTACAAC
Turning to B4, the EC50 in the series with PDL1 (CD274, B7-H1) [2] (setting [5]) was 12 nM. In addition, the binding signal with PDL1 (CD274, B7-H1) [1] (setting [5]) was > 5 fold over BSA.

B5: AP33 (ssDNA)
DNA: TCCCTACGGCGCTAACCATCTGGTACCTTACGACGCTTCATCTCCCGCCACCGTGCTACAAC
Regarding B5, the binding signal in the series with PDL1 (CD274, B7-H1) [1] is > 5 fold over BSA.

B6: AP22 (ssDNA)
DNA: TCCCTACGGCGCTAACAAACTAGGGTCCATTTGTGTACCTGCGAGCCACCGTGCTACAAC
With B6, the binding signal with PDL1 (CD274, B7-H1) [1] is > 5 fold over BSA.
